Assays:
[1] = molecular target: T1, holo NsrR ([4Fe-4S] in each subunit) (Streptomyces coelicolor, UniProt Q9L132 1-148); experiment: native MS; about equal free and DNA-bound holo NsrR before NO; SPR: 10 mM HEPES, 150 mM NaCl, 0.05% polysorbate 20, pH 7.4, 25 C, anaerobic; native MS: 100 mM ammonium acetate pH 8 (30 C for nitrosylation); conditions: protein: recombinant; tags: none; chain copies: 2; blunt
T1 sequence: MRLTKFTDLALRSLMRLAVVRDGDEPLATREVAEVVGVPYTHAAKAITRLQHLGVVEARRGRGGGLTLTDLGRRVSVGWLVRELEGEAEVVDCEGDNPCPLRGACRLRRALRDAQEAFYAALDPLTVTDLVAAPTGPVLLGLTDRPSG

[2] = molecular target: the molecule itself; experiment: native MS; as-isolated and reconstituted NsrR, 8 μM [4Fe–4S], ionised from 100 mM ammonium acetate pH 8.0, positive-mode ESI, no DNA
[3] = molecular target: T1, holo NsrR ([4Fe-4S] in each subunit); experiment: native MS; 100 mM ammonium acetate pH 8; relative affinity; SPR: 10 mM HEPES, 150 mM NaCl, 0.05% polysorbate 20, pH 7.4, 25 C, anaerobic; native MS: 100 mM ammonium acetate pH 8 (30 C for nitrosylation); conditions: protein: recombinant; tags: none; chain copies: 2; blunt

B1: hmpA2 23 bp native MS (dsDNA)
DNA 1: AACAAGCATCTGAGATCCCAGTT
DNA 2: AACTGGGATCTCAGATGCTTGTT
binding result [1]: binds

B2: NsrR from Streptomyces coelicolor, non-tagged (natural protein)
chain: T1 sequence
notes: NsrR, Rrf2-family transcriptional regulator of Streptomyces coelicolor A3, locus SCO7427; non-tagged construct from pNsrR; Homodimer; Each subunit can carry a [4Fe–4S] cluster: two clusters per dimer is holo, one is hemi-apo, none is apo; All three forms were observed as dimers by native MS (32 608, 32 257 and 31 907 Da); also called non-tagged NsrR; [4Fe–4S]; NsrR; source: E. coli BL21 λDE3 …
stoichiometry N [2]: 2

B3: hmpA1 22 bp native MS (dsDNA)
DNA 1: AACACGAATATCATCTACCAAT
DNA 2: ATTGGTAGATGATATTCGTGTT
Kd [3]: 3000 ± 100 nM

— article PMC11500311, “Binding of a single nitric oxide molecule is sufficient to disrupt DNA binding of the nitrosative stress regulator NsrR†” (Chemical Science, 2024)
